Sequences and labels used below:
B1: HA-tagged HACE1 wild-type [human] / myc-Rac1 Q61L [not stated] (parent complex)
chain 1: MERAMEQLNRLTRSLRRARTVELPEDNETAVYTLMPMVMADQHRSVSELLSNSKFDVNYAFGRVKRSLLHIAANCGSVECLVLLLKKGANPNYQDISGCTPLHLAARNGQKKCMSKLLEYSADVNICNNEGLTAIHWLAVNGRTELLHDLVQHVSDVDVEDAMGQTALHVACQNGHKTTVQCLLDSGADINRPNVSGATPLYFACSHGQRDTAQILLLRGAKYLPDKNGVTPLDLCVQGGYGETCEVLIQYHPRLFQTIIQMTQNEDLRENMLRQVLEHLSQQSESQYLKILTSLAEVATTNGHKLLSLSSNYDAQMKSLLRIVRMFCHVFRIGPSSPSNGIDMGYNGNKTPRSQVFKPLELLWHSLDEWLVLIATELMKNKRDSTEITSILLKQKGQDQDAASIPPFEPPGPGSYENLSTGTRESKPDALAGRQEASADCQDVISMTANRLSAVIQAFYMCCSCQMPPGMTSPRFIEFVCKHDEVLKCFVNRNPKIIFDHFHFLLECPELMSRFMHIIKAQPFKDRCEWFYEHLHSGQPDSDMVHRPVNENDILLVHRDSIFRSSCEVVSKANCAKLKQGIAVRFHGEEGMGQGVVREWFDILSNEIVNPDYALFTQSADGTTFQPNSNSYVNPDHLNYFRFAGQILGLALNHRQLVNIYFTRSFYKHILGIPVNYQDVASIDPEYAKNLQWILDNDISDLGLELTFSVETDVFGAMEEVPLKPGGGSILVTQNNKAEYVQLVTELRMTRAIQPQINAFLQGFHMFIPPSLIQLFDEYELELLLSGMPEIDVSDWIKNTEYTSGYEREDPVIQWFWEVVEDITQEERVLLLQFVTGSSRVPHGGFANIMGGSGLQNFTIAAVPYTPNLLPTSSTCINMLKLPEYPSKEILKDRLLVALHCGSYGYTMA
chain 2: not shown

The variants in the experiment derive from B1. The experiment in a line: co-immunoprecipitation (anti-myc IP), quantified; cells co-transfected with myc-Rac1 Q61L and HA-tagged HACE1 mutants; n ≥ 4 biological replicates; parent: 1; read off a plot.
Consider chain 1 A204T, for which the ratio to parent is about 0.11.
For the variant chain 1 N174A, the ratio to parent was about 0.26.
For chain 1 G175C the value was about 0.14.
In the case of chain 1 G175S, the ratio to parent was about 0.18.
The figure for chain 1 M114V is about 2.3; for chain 1 V140A it is about 3.2.
For chain 1 V140L the value was about 0.55.
For the variant chain 1 Q173A, the ratio to parent was about 0.28.

The record behind these values is article PMC5357957 (2017).
